# Laboratory results reported in publication PMC9957003, “Functional Analyses of Rare Germline Missense BRCA1 Variants Located within and outside Protein Domains with Known Functions” (Genes, 2023).
# T1: BARD1-V5 WT (BRCA1-Associated RING Domain protein 1) (UniProt Q99728 1-777)
# T1 construct: BARD1 (BRCA1-Associated RING Domain protein 1), wild type; also called pcDNA6.2-BARD1-V5; source: HEK293FT, transiently co-transfected, in lysate
# T1 sequence (looked up): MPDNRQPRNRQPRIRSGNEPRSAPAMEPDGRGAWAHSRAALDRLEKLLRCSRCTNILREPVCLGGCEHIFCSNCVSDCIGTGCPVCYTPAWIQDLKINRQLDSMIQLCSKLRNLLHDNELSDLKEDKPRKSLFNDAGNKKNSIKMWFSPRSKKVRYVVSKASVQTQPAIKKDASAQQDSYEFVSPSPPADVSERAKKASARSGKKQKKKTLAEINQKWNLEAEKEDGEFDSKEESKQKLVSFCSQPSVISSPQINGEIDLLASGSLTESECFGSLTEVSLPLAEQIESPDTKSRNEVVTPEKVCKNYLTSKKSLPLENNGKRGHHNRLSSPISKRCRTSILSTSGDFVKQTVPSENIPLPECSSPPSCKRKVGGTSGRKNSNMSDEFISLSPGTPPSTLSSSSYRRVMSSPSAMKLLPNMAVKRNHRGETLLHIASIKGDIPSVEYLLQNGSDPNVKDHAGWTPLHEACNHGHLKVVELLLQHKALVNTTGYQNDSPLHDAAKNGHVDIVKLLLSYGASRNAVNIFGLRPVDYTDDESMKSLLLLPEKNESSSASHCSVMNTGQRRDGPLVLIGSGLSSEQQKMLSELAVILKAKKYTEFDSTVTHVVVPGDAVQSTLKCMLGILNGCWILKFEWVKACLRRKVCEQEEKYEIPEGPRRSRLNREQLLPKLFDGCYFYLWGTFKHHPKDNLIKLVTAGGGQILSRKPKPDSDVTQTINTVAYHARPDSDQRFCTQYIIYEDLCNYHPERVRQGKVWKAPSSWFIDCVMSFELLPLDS
# Molecular target: T1, BARD1-V5 WT (BRCA1-Associated RING …)
# Assay: co-IP; HEK293FT co-transfected with BRCA1 WT or variant and BARD1-V5; 2 mg lysate protein incubated 90 min at 4 °C with V5 antibody coupled to Dynabeads Protein G; non-denaturing elution; BRCA1 in the IP detected by anti-BRCA1 blot, normalised to the anti-V5 signal, % of WT
# Details: partners not purified
row,Binder,Co-IP BARD1 (% of WT)
1,"mCherry-tagged wild type (WT) full-length human BRCA1 protein (natural protein, UniProt P38398 1-1863, looked up, BRCA1, human, full-length, wild type; also called BRCA1 WT; mCherry-BRCA1; source: HEK293FT, transiently co-transfected, in lysate) MDLSALRVEEVQNVINAMQKILECPICLELIKEPVSTKCDHIFCKFCMLKLLNQKKGPSQCPLCKNDITKRSLQESTRFSQLVEELLKIICAFQLDTGLEYANSYNFAKKENNSPEHLKDEVSIIQSMGYRNRAKRLLQSEPENPSLQETSLSVQLSNLGTVRTLRTKQRIQPQKTSVYIELGSDSSEDTVNKATYCSVGDQELLQITPQGTRDEISLDSAKKAACEFSETDVTNTEHHQPSNNDLNTTEKRAAERHPEKYQGSSVSNLHVEPCGTNTHASSLQHENSSLLLTKDRMNVEKAEFCNKSKQPGLARSQHNRWAGSKETCNDRRTPSTEKKVDLNADPLCERKEWNKQKLPCSENPRDTEDVPWITLNSSIQKVNEWFSRSDELLGSDDSHDGESESNAKVADVLDVLNEVDEYSGSSEKIDLLASDPHEALICKSERVHSKSVESNIEDKIFGKTYRKKASLPNLSHVTENLIIGAFVTEPQIIQERPLTNKLKRKRRPTSGLHPEDFIKKADLAVQKTPEMINQGTNQTEQNGQVMNITNSGHENKTKGDSIQNEKNPNPIESLEKESAFKTKAEPISSSISNMELELNIHNSKAPKKNRLRRKSSTRHIHALELVVSRNLSPPNCTELQIDSCSSSEEIKKKKYNQMPVRHSRNLQLMEGKEPATGAKKSNKPNEQTSKRHDSDTFPELKLTNAPGSFTKCSNTSELKEFVNPSLPREEKEEKLETVKVSNNAEDPKDLMLSGERVLQTERSVESSSISLVPGTDYGTQESISLLEVSTLGKAKTEPNKCVSQCAAFENPKGLIHGCSKDNRNDTEGFKYPLGHEVNHSRETSIEMEESELDAQYLQNTFKVSKRQSFAPFSNPGNAEEECATFSAHSGSLKKQSPKVTFECEQKEENQGKNESNIKPVQTVNITAGFPVVGQKDKPVDNAKCSIKGGSRFCLSSQFRGNETGLITPNKHGLLQNPYRIPPLFPIKSFVKTKCKKNLLEENFEEHSMSPEREMGNENIPSTVSTISRNNIRENVFKEASSSNINEVGSSTNEVGSSINEIGSSDENIQAELGRNRGPKLNAMLRLGVLQPEVYKQSLPGSNCKHPEIKKQEYEEVVQTVNTDFSPYLISDNLEQPMGSSHASQVCSETPDDLLDDGEIKEDTSFAENDIKESSAVFSKSVQKGELSRSPSPFTHTHLAQGYRRGAKKLESSEENLSSEDEELPCFQHLLFGKVNNIPSQSTRHSTVATECLSKNTEENLLSLKNSLNDCSNQVILAKASQEHHLSEETKCSASLFSSQCSELEDLTANTNTQDPFLIGSSKQMRHQSESQGVGLSDKELVSDDEERGTGLEENNQEEQSMDSNLGEAASGCESETSVSEDCSGLSSQSDILTTQQRDTMQHNLIKLQQEMAELEAVLEQHGSQPSNSYPSIISDSSALEDLRNPEQSTSEKAVLTSQKSSEYPISQNPEGLSADKFEVSADSSTSKNKEPGVERSSPSKCPSLDDRWYMHSCSGSLQNRNYPSQEELIKVVDVEEQQLEESGPHDLTETSYLPRQDLEGTPYLESGISLFSDDPESDPSEDRAPESARVGNIPSSTSALKVPQLKVAESAQSPAAAHTTDTAGYNAMEESVSREKPELTASTERVNKRMSMVVSGLTPEEFMLVYKFARKHHITLTNLITEETTHVVMKTDAEFVCERTLKYFLGIAGGKWVVSYFWVTQSIKERKMLNEHDFEVRGDVVNGRNHQGPKRARESQDRKIFRGLEICCYGPFTNMPTDQLEWMVQLCGASVVKELSSFTLGTGVHPIVVVQPDAWTEDNGFHAIGQMCEAPVVTREWVLDSVALYQCQELDTYLIPQIPHSHY",100 % of WT
2,"BRCA1 p.Cys39Tyr (full-length, mCherry-tagged; pathogenic control variant, RING domain) (natural protein, human, UniProt P38398 1-1863, looked up, BRCA1, human, full-length, pathogenic control missense variant in the RING domain, introduced in the WT plasmid; Made by site-directed mutagenesis of the plasmid of m1; all other places and c.116G > A say p.Cys39Tyr; also called c.116G > A; source: HEK293FT, transiently co-transfected, in lysate) MDLSALRVEEVQNVINAMQKILECPICLELIKEPVSTKYDHIFCKFCMLKLLNQKKGPSQCPLCKNDITKRSLQESTRFSQLVEELLKIICAFQLDTGLEYANSYNFAKKENNSPEHLKDEVSIIQSMGYRNRAKRLLQSEPENPSLQETSLSVQLSNLGTVRTLRTKQRIQPQKTSVYIELGSDSSEDTVNKATYCSVGDQELLQITPQGTRDEISLDSAKKAACEFSETDVTNTEHHQPSNNDLNTTEKRAAERHPEKYQGSSVSNLHVEPCGTNTHASSLQHENSSLLLTKDRMNVEKAEFCNKSKQPGLARSQHNRWAGSKETCNDRRTPSTEKKVDLNADPLCERKEWNKQKLPCSENPRDTEDVPWITLNSSIQKVNEWFSRSDELLGSDDSHDGESESNAKVADVLDVLNEVDEYSGSSEKIDLLASDPHEALICKSERVHSKSVESNIEDKIFGKTYRKKASLPNLSHVTENLIIGAFVTEPQIIQERPLTNKLKRKRRPTSGLHPEDFIKKADLAVQKTPEMINQGTNQTEQNGQVMNITNSGHENKTKGDSIQNEKNPNPIESLEKESAFKTKAEPISSSISNMELELNIHNSKAPKKNRLRRKSSTRHIHALELVVSRNLSPPNCTELQIDSCSSSEEIKKKKYNQMPVRHSRNLQLMEGKEPATGAKKSNKPNEQTSKRHDSDTFPELKLTNAPGSFTKCSNTSELKEFVNPSLPREEKEEKLETVKVSNNAEDPKDLMLSGERVLQTERSVESSSISLVPGTDYGTQESISLLEVSTLGKAKTEPNKCVSQCAAFENPKGLIHGCSKDNRNDTEGFKYPLGHEVNHSRETSIEMEESELDAQYLQNTFKVSKRQSFAPFSNPGNAEEECATFSAHSGSLKKQSPKVTFECEQKEENQGKNESNIKPVQTVNITAGFPVVGQKDKPVDNAKCSIKGGSRFCLSSQFRGNETGLITPNKHGLLQNPYRIPPLFPIKSFVKTKCKKNLLEENFEEHSMSPEREMGNENIPSTVSTISRNNIRENVFKEASSSNINEVGSSTNEVGSSINEIGSSDENIQAELGRNRGPKLNAMLRLGVLQPEVYKQSLPGSNCKHPEIKKQEYEEVVQTVNTDFSPYLISDNLEQPMGSSHASQVCSETPDDLLDDGEIKEDTSFAENDIKESSAVFSKSVQKGELSRSPSPFTHTHLAQGYRRGAKKLESSEENLSSEDEELPCFQHLLFGKVNNIPSQSTRHSTVATECLSKNTEENLLSLKNSLNDCSNQVILAKASQEHHLSEETKCSASLFSSQCSELEDLTANTNTQDPFLIGSSKQMRHQSESQGVGLSDKELVSDDEERGTGLEENNQEEQSMDSNLGEAASGCESETSVSEDCSGLSSQSDILTTQQRDTMQHNLIKLQQEMAELEAVLEQHGSQPSNSYPSIISDSSALEDLRNPEQSTSEKAVLTSQKSSEYPISQNPEGLSADKFEVSADSSTSKNKEPGVERSSPSKCPSLDDRWYMHSCSGSLQNRNYPSQEELIKVVDVEEQQLEESGPHDLTETSYLPRQDLEGTPYLESGISLFSDDPESDPSEDRAPESARVGNIPSSTSALKVPQLKVAESAQSPAAAHTTDTAGYNAMEESVSREKPELTASTERVNKRMSMVVSGLTPEEFMLVYKFARKHHITLTNLITEETTHVVMKTDAEFVCERTLKYFLGIAGGKWVVSYFWVTQSIKERKMLNEHDFEVRGDVVNGRNHQGPKRARESQDRKIFRGLEICCYGPFTNMPTDQLEWMVQLCGASVVKELSSFTLGTGVHPIVVVQPDAWTEDNGFHAIGQMCEAPVVTREWVLDSVALYQCQELDTYLIPQIPHSHY",8 % of WT
3,"BRCA1 p.Lys45Gln (full-length, mCherry-tagged; benign control variant, RING domain) (natural protein, human, UniProt P38398 1-1863, looked up, BRCA1, human, full-length, benign control missense variant in the RING domain, introduced in the WT plasmid; Made by site-directed mutagenesis of the plasmid of m1; also called c.133A > C; source: HEK293FT, transiently co-transfected, in lysate) MDLSALRVEEVQNVINAMQKILECPICLELIKEPVSTKCDHIFCQFCMLKLLNQKKGPSQCPLCKNDITKRSLQESTRFSQLVEELLKIICAFQLDTGLEYANSYNFAKKENNSPEHLKDEVSIIQSMGYRNRAKRLLQSEPENPSLQETSLSVQLSNLGTVRTLRTKQRIQPQKTSVYIELGSDSSEDTVNKATYCSVGDQELLQITPQGTRDEISLDSAKKAACEFSETDVTNTEHHQPSNNDLNTTEKRAAERHPEKYQGSSVSNLHVEPCGTNTHASSLQHENSSLLLTKDRMNVEKAEFCNKSKQPGLARSQHNRWAGSKETCNDRRTPSTEKKVDLNADPLCERKEWNKQKLPCSENPRDTEDVPWITLNSSIQKVNEWFSRSDELLGSDDSHDGESESNAKVADVLDVLNEVDEYSGSSEKIDLLASDPHEALICKSERVHSKSVESNIEDKIFGKTYRKKASLPNLSHVTENLIIGAFVTEPQIIQERPLTNKLKRKRRPTSGLHPEDFIKKADLAVQKTPEMINQGTNQTEQNGQVMNITNSGHENKTKGDSIQNEKNPNPIESLEKESAFKTKAEPISSSISNMELELNIHNSKAPKKNRLRRKSSTRHIHALELVVSRNLSPPNCTELQIDSCSSSEEIKKKKYNQMPVRHSRNLQLMEGKEPATGAKKSNKPNEQTSKRHDSDTFPELKLTNAPGSFTKCSNTSELKEFVNPSLPREEKEEKLETVKVSNNAEDPKDLMLSGERVLQTERSVESSSISLVPGTDYGTQESISLLEVSTLGKAKTEPNKCVSQCAAFENPKGLIHGCSKDNRNDTEGFKYPLGHEVNHSRETSIEMEESELDAQYLQNTFKVSKRQSFAPFSNPGNAEEECATFSAHSGSLKKQSPKVTFECEQKEENQGKNESNIKPVQTVNITAGFPVVGQKDKPVDNAKCSIKGGSRFCLSSQFRGNETGLITPNKHGLLQNPYRIPPLFPIKSFVKTKCKKNLLEENFEEHSMSPEREMGNENIPSTVSTISRNNIRENVFKEASSSNINEVGSSTNEVGSSINEIGSSDENIQAELGRNRGPKLNAMLRLGVLQPEVYKQSLPGSNCKHPEIKKQEYEEVVQTVNTDFSPYLISDNLEQPMGSSHASQVCSETPDDLLDDGEIKEDTSFAENDIKESSAVFSKSVQKGELSRSPSPFTHTHLAQGYRRGAKKLESSEENLSSEDEELPCFQHLLFGKVNNIPSQSTRHSTVATECLSKNTEENLLSLKNSLNDCSNQVILAKASQEHHLSEETKCSASLFSSQCSELEDLTANTNTQDPFLIGSSKQMRHQSESQGVGLSDKELVSDDEERGTGLEENNQEEQSMDSNLGEAASGCESETSVSEDCSGLSSQSDILTTQQRDTMQHNLIKLQQEMAELEAVLEQHGSQPSNSYPSIISDSSALEDLRNPEQSTSEKAVLTSQKSSEYPISQNPEGLSADKFEVSADSSTSKNKEPGVERSSPSKCPSLDDRWYMHSCSGSLQNRNYPSQEELIKVVDVEEQQLEESGPHDLTETSYLPRQDLEGTPYLESGISLFSDDPESDPSEDRAPESARVGNIPSSTSALKVPQLKVAESAQSPAAAHTTDTAGYNAMEESVSREKPELTASTERVNKRMSMVVSGLTPEEFMLVYKFARKHHITLTNLITEETTHVVMKTDAEFVCERTLKYFLGIAGGKWVVSYFWVTQSIKERKMLNEHDFEVRGDVVNGRNHQGPKRARESQDRKIFRGLEICCYGPFTNMPTDQLEWMVQLCGASVVKELSSFTLGTGVHPIVVVQPDAWTEDNGFHAIGQMCEAPVVTREWVLDSVALYQCQELDTYLIPQIPHSHY",76 % of WT
